According to publication PMC10681739, “High-throughput data and modeling reveal insights into the mechanisms of cooperative DNA-binding by transcription factor proteins”:

Experiments:
ETS1:RUNX1 = ETS1:RUNX1 (Homo sapiens, UniProt P14921;Q01196 full;full); test: gcPBM; 1 nM ETS1 + 25 nM RUNX1, anti-ETS1 signal, normalised; details: tags: N-terminal GST (pDEST15), kept (PMC6008103); copies: 1;1; label: surface-attached array probe
ETS1 x2 = molecular target: T1, ETS1 x2 (Homo sapiens, UniProt P14921); test: gcPBM; 10 nM ETS1; details: tags: N-terminal GST (pDEST15), kept (PMC6008103); chain copies: 2; label: surface-attached array probe
T1 sequence: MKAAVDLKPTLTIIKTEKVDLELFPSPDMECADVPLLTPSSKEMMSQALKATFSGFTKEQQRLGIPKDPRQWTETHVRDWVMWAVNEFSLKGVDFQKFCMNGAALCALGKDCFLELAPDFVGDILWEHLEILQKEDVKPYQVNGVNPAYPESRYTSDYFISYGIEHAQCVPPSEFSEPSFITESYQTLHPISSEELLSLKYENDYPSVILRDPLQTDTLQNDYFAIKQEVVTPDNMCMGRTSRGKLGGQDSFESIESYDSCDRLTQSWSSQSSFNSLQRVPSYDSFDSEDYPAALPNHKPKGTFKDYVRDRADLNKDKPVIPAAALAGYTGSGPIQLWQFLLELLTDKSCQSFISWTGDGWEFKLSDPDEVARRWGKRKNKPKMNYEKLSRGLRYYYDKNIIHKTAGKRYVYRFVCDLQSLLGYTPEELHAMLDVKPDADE

Sequence of ETS1:RUNX1 (Q01196 whole entry, one chain of several): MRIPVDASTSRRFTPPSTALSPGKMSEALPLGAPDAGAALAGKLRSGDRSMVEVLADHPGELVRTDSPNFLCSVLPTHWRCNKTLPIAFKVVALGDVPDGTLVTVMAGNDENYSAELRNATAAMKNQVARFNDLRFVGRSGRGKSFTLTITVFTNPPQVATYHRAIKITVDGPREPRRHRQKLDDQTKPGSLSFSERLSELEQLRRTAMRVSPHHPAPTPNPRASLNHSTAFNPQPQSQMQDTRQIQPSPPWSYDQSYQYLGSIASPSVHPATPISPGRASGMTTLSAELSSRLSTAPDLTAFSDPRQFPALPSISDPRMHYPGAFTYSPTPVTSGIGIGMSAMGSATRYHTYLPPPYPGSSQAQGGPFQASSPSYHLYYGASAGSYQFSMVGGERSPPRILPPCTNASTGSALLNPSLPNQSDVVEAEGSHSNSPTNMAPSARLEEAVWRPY

B1: Table S2 A row 1075 (dsDNA)
DNA 1: GTTGCAGGAAACGATGGGTTTTGTGGTATGAACTGC
DNA 2: GCAGTTCATACCACAAAACCCATCGTTTCCTGCAAC
ETS1:RUNX1
  binding signal: 2140 PBM fluorescence, median of replicate spots

B2: Table S2 A row 37 (dsDNA)
DNA 1: AGAATCGCATCAGGATGTGGTGAGGGAGCACATTTG
DNA 2: CAAATGTGCTCCCTCACCACATCCTGATGCGATTCT
ETS1:RUNX1
  binding signal: 2110 PBM fluorescence, median of replicate spots

B3: Table S2 A row 548 (dsDNA)
DNA 1: CTCTCACTTCCCGTGTGAGAAAAACCACAGAAAAGC
DNA 2: GCTTTTCTGTGGTTTTTCTCACACGGGAAGTGAGAG
ETS1:RUNX1
  binding signal: 2080 PBM fluorescence, median of replicate spots

B4: Table S2 A row 1754 (dsDNA)
DNA 1: AACAGTTGCATAGGAAGTGGTCAGCTCTCCTCCACC
DNA 2: GGTGGAGGAGAGCTGACCACTTCCTATGCAACTGTT
ETS1:RUNX1
  binding signal: 2050 PBM fluorescence, median of replicate spots

B5: Table S2 A row 224 (dsDNA)
DNA 1: GACCAATGTAAACAAGGATGTGGGTTCTCCGGGCAC
DNA 2: GTGCCCGGAGAACCCACATCCTTGTTTACATTGGTC
ETS1:RUNX1
  binding signal: 2020 PBM fluorescence, median of replicate spots

B6: Table S2 A row 1175 (dsDNA)
DNA 1: TTGCTCCCGGAAGCCCCGCCCGACCGCGGCTCCTGA
DNA 2: TCAGGAGCCGCGGTCGGGCGGGGCTTCCGGGAGCAA
ETS1:RUNX1
  binding signal: 1960 PBM fluorescence, median of replicate spots

B7: Table S2 A row 979 (dsDNA)
DNA 1: GCGCGGCCCGGAAGGGGGTAACCGCTGAGTCTTTGA
DNA 2: TCAAAGACTCAGCGGTTACCCCCTTCCGGGCCGCGC
ETS1:RUNX1
  binding signal: 1910 PBM fluorescence, median of replicate spots

B8: Table S2 A row 315 (dsDNA)
DNA 1: GAAAAATGAAGTTTCCGCAGTAACCACAACACAGCC
DNA 2: GGCTGTGTTGTGGTTACTGCGGAAACTTCATTTTTC
ETS1:RUNX1
  binding signal: 1900 PBM fluorescence, median of replicate spots

B9: Table S2 A row 342 (dsDNA)
DNA 1: ACACCCCAGGAAGTGGCAGAGACCACAACAAGTCAG
DNA 2: CTGACTTGTTGTGGTCTCTGCCACTTCCTGGGGTGT
ETS1:RUNX1
  binding signal: 1810 PBM fluorescence, median of replicate spots

B10: Table S2 A row 388 (dsDNA)
DNA 1: GCAGTTTCAAGAGGATGTGGTCTCTTTCACTGCCTG
DNA 2: CAGGCAGTGAAAGAGACCACATCCTCTTGAAACTGC
ETS1:RUNX1
  binding signal: 1800 PBM fluorescence, median of replicate spots

B11: Table S2 A row 988 (dsDNA)
DNA 1: TCATGCTGCTTCCTGCCCAACCCGCAGTTCCGATAA
DNA 2: TTATCGGAACTGCGGGTTGGGCAGGAAGCAGCATGA
ETS1:RUNX1
  binding signal: 1730 PBM fluorescence, median of replicate spots

B12: Table S2 A row 83 (dsDNA)
DNA 1: GACAGACCTTAGGAAGTCGCGGTTTCATCAGGGCTT
DNA 2: AAGCCCTGATGAAACCGCGACTTCCTAAGGTCTGTC
ETS1:RUNX1
  binding signal: 1710 PBM fluorescence, median of replicate spots

B13: Table S2 A row 337 (dsDNA)
DNA 1: ATAGTCTCTTCCTGTGTTGCAAACCACAGGTCCACC
DNA 2: GGTGGACCTGTGGTTTGCAACACAGGAAGAGACTAT
ETS1:RUNX1
  binding signal: 1690 PBM fluorescence, median of replicate spots

B14: Table S2 A row 769 (dsDNA)
DNA 1: CAAGCCAACATCCTGACAGTTTAGAAACCACAGGAG
DNA 2: CTCCTGTGGTTTCTAAACTGTCAGGATGTTGGCTTG
ETS1:RUNX1
  binding signal: 1670 PBM fluorescence, median of replicate spots

B15: Table S2 A row 127 (dsDNA)
DNA 1: CAAGCCAGGAAGAGGGCCCTCACCAGAAACCGCACT
DNA 2: AGTGCGGTTTCTGGTGAGGGCCCTCTTCCTGGCTTG
ETS1:RUNX1
  binding signal: 1640 PBM fluorescence, median of replicate spots

B16: Table S2 A row 1201 (dsDNA)
DNA 1: GTTGAGTTCCGGGGGAGGTTGAGTTCCTGCGGTCAA
DNA 2: TTGACCGCAGGAACTCAACCTCCCCCGGAACTCAAC
ETS1:RUNX1
  binding signal: 1630 PBM fluorescence, median of replicate spots

B17: Table S2 A row 1411 (dsDNA)
DNA 1: GAGGGGGAGGTTTCCGGGGCCTGTGGTTACTACACT
DNA 2: AGTGTAGTAACCACAGGCCCCGGAAACCTCCCCCTC
ETS1:RUNX1
  binding signal: 1620 PBM fluorescence, median of replicate spots

B18: Table S2 A row 308 (dsDNA)
DNA 1: GCCGCTGCCTCTTCCTGTGTGGTTTTTCAGGGCTTA
DNA 2: TAAGCCCTGAAAAACCACACAGGAAGAGGCAGCGGC
ETS1:RUNX1
  binding signal: 1610 PBM fluorescence, median of replicate spots

B19: Table S2 A row 1129 (dsDNA)
DNA 1: CACTTCCTCCTCGGGGGCCTCAGAAAACCACAGGGC
DNA 2: GCCCTGTGGTTTTCTGAGGCCCCCGAGGAGGAAGTG
ETS1:RUNX1
  binding signal: 1580 PBM fluorescence, median of replicate spots

B20: Table S2 A row 1056 (dsDNA)
DNA 1: GGGTCTCCAGGAAGCCACTCACCACAAACTTTGACA
DNA 2: TGTCAAAGTTTGTGGTGAGTGGCTTCCTGGAGACCC
ETS1:RUNX1
  binding signal: 1560 PBM fluorescence, median of replicate spots

B21: Table S2 A row 670 (dsDNA)
DNA 1: TGAGCACAGTATTTCCTGTGGTTTCTATTGCATTTC
DNA 2: GAAATGCAATAGAAACCACAGGAAATACTGTGCTCA
ETS1:RUNX1
  binding signal: 1550 PBM fluorescence, median of replicate spots

B22: Table S2 A row 1529 (dsDNA)
DNA 1: GGTGCCTGGGGAGGATGTGGGCTGACTGGGAGGGGT
DNA 2: ACCCCTCCCAGTCAGCCCACATCCTCCCCAGGCACC
ETS1:RUNX1
  binding signal: 1520 PBM fluorescence, median of replicate spots

B23: Table S2 A row 1399 (dsDNA)
DNA 1: TCGCACCGGAACCCCTTGGCGGATTATGTGGGTTCC
DNA 2: GGAACCCACATAATCCGCCAAGGGGTTCCGGTGCGA
ETS1:RUNX1
  binding signal: 1490 PBM fluorescence, median of replicate spots

B24: Table S2 A row 140 (dsDNA)
DNA 1: AGTTACAGTAAAGGATGTGGTGAAACAGATGTTTAT
DNA 2: ATAAACATCTGTTTCACCACATCCTTTACTGTAACT
ETS1:RUNX1
  binding signal: 1480 PBM fluorescence, median of replicate spots

B25: Table S2 A row 1288 (dsDNA)
DNA 1: TCTCTATGGTTTCCGTTGGGTGTGTGGTTTTTTTGT
DNA 2: ACAAAAAAACCACACACCCAACGGAAACCATAGAGA
ETS1:RUNX1
  binding signal: 1410 PBM fluorescence, median of replicate spots

B26: Table S2 A row 672 (dsDNA)
DNA 1: ATGTGCCCAAAGGATGTCACCGCAAAGATCATAGGA
DNA 2: TCCTATGATCTTTGCGGTGACATCCTTTGGGCACAT
ETS1:RUNX1
  binding signal: 1400 PBM fluorescence, median of replicate spots

B27: Table S2 A row 1237 (dsDNA)
DNA 1: AGCCTACATCCTGCACTGCTTAACCACAGCCCGCCT
DNA 2: AGGCGGGCTGTGGTTAAGCAGTGCAGGATGTAGGCT
ETS1:RUNX1
  binding signal: 1360 PBM fluorescence, median of replicate spots

B28: Table S2 A row 1000 (dsDNA)
DNA 1: CCCATTTCCTGCTCTCCAGAGTTAACCACTGAAGTC
DNA 2: GACTTCAGTGGTTAACTCTGGAGAGCAGGAAATGGG
ETS1:RUNX1
  binding signal: 1350 PBM fluorescence, median of replicate spots

B29: Table S2 A row 712 (dsDNA)
DNA 1: GACTTTTACGGAAATAGCAGTCCAAAACCGCGTCTA
DNA 2: TAGACGCGGTTTTGGACTGCTATTTCCGTAAAAGTC
ETS1:RUNX1
  binding signal: 1340 PBM fluorescence, median of replicate spots

B30: Table S2 A row 378 (dsDNA)
DNA 1: GAAAAAAATGAGCTTCCTTTAACCACAACTGTATTA
DNA 2: TAATACAGTTGTGGTTAAAGGAAGCTCATTTTTTTC
ETS1:RUNX1
  binding signal: 1320 PBM fluorescence, median of replicate spots

B31: Table S2 A row 1444 (dsDNA)
DNA 1: TGCTTAGCGGGAAGTGCTTACACCACAAAACAAGAC
DNA 2: GTCTTGTTTTGTGGTGTAAGCACTTCCCGCTAAGCA
ETS1:RUNX1
  binding signal: 1280 PBM fluorescence, median of replicate spots

B32: Table S2 A row 465 (dsDNA)
DNA 1: TGAGGGGCTCGCCGGGAAATGTGGTTTAGCGGCCCT
DNA 2: AGGGCCGCTAAACCACATTTCCCGGCGAGCCCCTCA
ETS1:RUNX1
  binding signal: 1230 PBM fluorescence, median of replicate spots

B33: Table S2 A row 963 (dsDNA)
DNA 1: GGGTCGCGGCCTTCCGGCGAACGCGGTTACCGTGGA
DNA 2: TCCACGGTAACCGCGTTCGCCGGAAGGCCGCGACCC
ETS1:RUNX1
  binding signal: 1180 PBM fluorescence, median of replicate spots

B34: Table S4 A row 1968 (dsDNA)
DNA 1: GTGATTGGCAGGATCCTGGTATCCGCTAACAGGTAC
DNA 2: GTACCTGTTAGCGGATACCAGGATCCTGCCAATCAC
ETS1 x2
  binding signal: 599 PBM fluorescence, median of replicate spots

B35: Table S4 A row 1783 (dsDNA)
DNA 1: ACCCCGGATGGCACCGCGAGTCCCCGTTTCCGACAA
DNA 2: TTGTCGGAAACGGGGACTCGCGGTGCCATCCGGGGT
ETS1 x2
  binding signal: 645 PBM fluorescence, median of replicate spots

B36: Table S4 A row 1074 (dsDNA)
DNA 1: CACGCACATCCCCAGTGAGTAACACTTCCTGAGGGC
DNA 2: GCCCTCAGGAAGTGTTACTCACTGGGGATGTGCGTG
ETS1 x2
  binding signal: 653 PBM fluorescence, median of replicate spots

B37: Table S4 A row 2621 (dsDNA)
DNA 1: TGGAGCCGGGGGAAGTGGGAGCATCCGCAGCCCCGC
DNA 2: GCGGGGCTGCGGATGCTCCCACTTCCCCCGGCTCCA
ETS1 x2
  binding signal: 698 PBM fluorescence, median of replicate spots

B38: Table S4 A row 493 (dsDNA)
DNA 1: TGGTAAACGGAAGAGACCTCTCCTGTTCCGGGAGTA
DNA 2: TACTCCCGGAACAGGAGAGGTCTCTTCCGTTTACCA
ETS1 x2
  binding signal: 743 PBM fluorescence, median of replicate spots

B39: Table S4 A row 761 (dsDNA)
DNA 1: TTGCCGGATGAGGTTGGTTGTCTCTAATTTCCTCTC
DNA 2: GAGAGGAAATTAGAGACAACCAACCTCATCCGGCAA
ETS1 x2
  binding signal: 764 PBM fluorescence, median of replicate spots

B40: Table S4 A row 1346 (dsDNA)
DNA 1: TTCCCAGGAAGCCCCAAAGCCCTGGCTTCCGCCCAA
DNA 2: TTGGGCGGAAGCCAGGGCTTTGGGGCTTCCTGGGAA
ETS1 x2
  binding signal: 774 PBM fluorescence, median of replicate spots

B41: Table S4 A row 1336 (dsDNA)
DNA 1: AGGTCGGAAGCGCTTCTACTGCAGCTCCGGAAAGGG
DNA 2: CCCTTTCCGGAGCTGCAGTAGAAGCGCTTCCGACCT
ETS1 x2
  binding signal: 806 PBM fluorescence, median of replicate spots
